Measurements published in article PMC8635412, “Identification of disease-linked hyperactivating mutations in UBE3A through large-scale functional variant analysis” (Nature Communications, 2021).
Changes are numbered by the printed parent chain. In names and notes the source's numbering stands.

B1: UBE3A HECT domain, wild type (domain or fragment, human, UniProt Q05086-2 495-852, looked up)
chain: QLNPYLRLKVRRDHIIDDALVRLEMIAMENPADLKKQLYVEFEGEQGVDEGGVSKEFFQLVVEEIFNPDIGMFTYDESTKLFWFNPSSFETEGQFTLIGIVLGLAIYNNCILDVHFPMVVYRKLMGKKGTFRDLGDSHPVLYQSLKDLLEYEGNVEDDMMITFQISQTDLFGNPMMYDLKENGDKIPITNENRKEFVNLYSDYILNKSVEKQFKAFRRGFHMVTNESPLKYLFRPEEIELLICGSRNLDFQALEETTEYDGGYTRDSVLIREFWEIVHSFTDEQKRLFLQFTTGTDRAPVGGLGKLKMIIAKNGPDTERLPTSHTCFNVLLLPEYSSKEKLKERLLKAITYAKGFGML
notes: UBE3A, human, HECT domain; residue numbers follow human UBE3A isoform I (NP_001361390.1); Cloned into pRSFDuet-1 with an octa-histidine-GST double tag and a TEV site; also called WT HECT domain; WT UBE3A; not shown: His8, N-terminal, cleaved; GST, N-terminal, cleaved
B2: UBE3A HECT domain Q588E (domain or fragment, human, UniProt Q05086-2 1-852, looked up)
chain: B1 chain with Q94E
notes: UBE3A, human, HECT domain with the patient variant Q588E; residue numbers follow human UBE3A isoform I (NP_001361390.1); Made by site-directed mutagenesis of the m1 construct; Q588E is a variant found in individuals (ClinVar); also called Q588E HECT domain; UBE3A Q588E; not shown: His8, N-terminal, cleaved; GST, N-terminal, cleaved

Biological target: T1, N-terminal fluorescein-labeled ubiquitin (UniProt P0CG48 1-76, fluorescein on the N-terminus)
T1 construct: source: bought: Anaspec
Assay: fluorescence polarisation; 1 uM fluorescein-labeled ubiquitin with varied concentrations of UBE3A HECT domain, 384-well plate, 30 °C; one-site specific binding model
Details: both partners purified

Row | Binder | Kd
1 | B1 | 65.7 ± 28.5 µM
2 | B2 | 18 ± 1.5 µM
